Values joined by “and” are separate entries in the source; they are usually repeats but may differ in a detail not shown here. Equal values may be shown once. Read-outs that look alike come from different tables or passages of the source. Values belong to the molecule of their own block, whether it stands above or below them.
Legend:
[1] = biological target: recombinant NKG2D-Fc (R&D Systems) (human) (UniProt P26718); test: SPR (Biacore), antibody over immobilised NKG2D-Fc, Langmuir fit
[2] = biological target: T1, human NKG2D (hNKG2D) on the cell surface (human, UniProt P26718 1-216); test: flow cytometry, NKG2D-expressing cells; ON72 first, then 16F16 as competitor
T1 construct: BaF/3 cells co-transfected with full-length NKG2D and DAP10, or native receptor on human NK, CD8+ and gamma-delta T cells of PBMC / whole blood; also called cell-surface NKG2D; NKG2D/DAP10-expressing BaF/3 cells
T1 chain: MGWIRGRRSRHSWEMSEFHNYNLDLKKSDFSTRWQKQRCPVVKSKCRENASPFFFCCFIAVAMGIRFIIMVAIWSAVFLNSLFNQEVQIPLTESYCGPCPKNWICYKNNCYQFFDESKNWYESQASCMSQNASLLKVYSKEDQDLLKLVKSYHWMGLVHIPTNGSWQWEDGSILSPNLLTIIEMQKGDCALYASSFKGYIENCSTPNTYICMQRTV

[3] = biological target: T1, human NKG2D (hNKG2D) on the cell surface; test: flow cytometry, NKG2D/DAP10 BaF/3 cells, dose-response
[4] = biological target: T1, human NKG2D (hNKG2D) on the cell surface; test: flow cytometry, NKG2D/DAP10 BaF/3 cells; antibody pre-incubated, then 1 µg hFc-MICA as competitor
[5] = biological target: T1, human NKG2D (hNKG2D) on the cell surface; test: flow cytometry, NKG2D-expressing cells; ON72 first, then 16F16 as competitor (FIG. 9A legend)
[6] = biological target: T1, human NKG2D (hNKG2D) on the cell surface; test: flow cytometry, NKG2D/DAP10 BaF/3 cells; antibody pre-incubated, then 1 µg hFc-MICA as competitor
[7] = biological target: T1, human NKG2D (hNKG2D) on the cell surface; test: cell-based or functional assay
[8] = biological target: T1, human NKG2D (hNKG2D) on the cell surface; test: flow cytometry, NKG2D-expressing cells; pre-incubation with 149810, then ON72 as competitor (post-incubation antibody)
[9] = biological target: T1, human NKG2D (hNKG2D) on the cell surface; test: flow cytometry, NKG2D-expressing cells; 149810 first, then 16F16 as competitor
[10] = biological target: T2, soluble hNKG2D fragment (residues 81-216 of SEQ ID NO:2) (human, UniProt P26718 81-216); test: complex purified by gel filtration; X-ray crystal structure 3.15 Å
T2 construct: Homodimer in the crystal with two hzON72 Fab molecules
T2 sequence: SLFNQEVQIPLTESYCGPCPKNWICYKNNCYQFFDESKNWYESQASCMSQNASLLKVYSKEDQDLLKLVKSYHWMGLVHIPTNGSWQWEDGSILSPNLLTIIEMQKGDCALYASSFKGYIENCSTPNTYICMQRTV

Molecule: ON72 (murine anti-hNKG2D antibody, Beckman Coulter)
Kd [1]: 170 pM
koff [1]: 0.00011 s⁻¹
kon [1]: 960000 M⁻¹ s⁻¹
% of 16F16 binding blocked [2]: 82%
EC50 [3]: 0.062 µg/mL and 0.048 nM
IC50 [4]: 20 pM
full blockade of 1 µg MICA-Fc [4]: 0.24 nM
% of 16F16 binding prevented [5]: 85%
IC50 [6]: 0.019 µg/mL
full blockade of 1 µg MICA-Fc [6]: 0.54 µg/mL
% proliferation of PBMC, stimulation CD3 0.1 + CD28 + ON72 (immobilized) [7]: 22.9%
% proliferation of PBMC, stimulation CD3 0.1 + ON72 (immobilized) [7]: 7.12%
% proliferation of PBMC, stimulation CD3 0.3 + CD28 + ON72 (immobilized) [7]: 40.1%
% proliferation of PBMC, stimulation CD3 0.3 + ON72 (immobilized) [7]: 28.4%
EC50 (µg/ml), inhibition of NK-cell killing of ULPB3-expressing target cells (51Cr release) [7]: 0.065 µg/mL
down-modulation of cell-surface NKG2D, NKG2D/DAP10 BaF/3 cells, overnight, 1 µg [7]: 55%
internalization of NKG2D at 1 h, NKG2D+ lymphocytes in whole blood, 0.1 µg/ml [7]: 50 to 75%
internalization of NKG2D at 24 h, NKG2D+ lymphocytes in whole blood, 0.1 µg/ml [7]: 100%

B1: 16F16 (recombinantly expressed, IgG4 isotype) (antibody, V domains shown)
VH: EVQLVESGGGLVKPGGSLRLSCAASGFTFSSYSMNWVRQAPGKGLEWVSSITSSSSYIYYADSVKGRFTISRDNAKNSLYLQMNSLRAEDTAVYYCARDRRYFDWFPLDYRGQGTLVTVSS
VL: DIQMTQSPSSLSASVGDRVTITCRASQGISSWLAWYQQKPEKAPKSLIYAASSLQSGVPSRFSGSGSGTDFTLTISSLQPEDFATYYCQQYNGYPYTFGQGTKLEIKR
notes: Fully human anti-hNKG2D antibody from KM mouse hybridoma; variable regions cloned into human IgG4 framework, expressed in HEK293 cells, protein A purified; also called 16F16 IgG4; 16F16 (IgG4)
EC50 [3]: 34 pM

Next, values leading:

EC50 [3]: 0.063 µg/mL and 0.042 nM
Inhibition (%) [8]: 85%
% blockade of 16F16 binding [9]: 50%
Molecule: 149810 (murine anti-hNKG2D antibody, R&D Systems)

binding result [10]: binds
B2: hzON72 Fab (humanized version of ON72 Fab fragment) (Fab, V domains shown)
VH: QVQLVQSGAEVKKPGASVKVSCKASGYTFTNYWMHWVRQAPGQGLEWMGEIDPSDIYTNYAQKFQGRVTMTRDTSTSTVYMELSSLRSEDTAVYYCARGIYDGYYVYGMDYWGQGTTVTVSS
VL: YIQMTQSPSSLSASVGDRVTITCRSSQDISNYLNWYQQKPGKAPKLLIYYTSRLHSGVPSRFSGSGSGTDFTFTISSLQPEDIATYYCQQGKTLPRTFGGGTKVEIKR
